Test results reported in patent US20090148510A1 (Stanford University, published 2009).
Blank lines part the entries; values can stand above or below the binder they belong to.

What was measured:
[1] = target: T1, purified β2AR having an amino terminal Flag epitope tag and a carboxyl hexahistidine tag (UniProt P07550 1-413); experiment: isothermal titration calorimetry, detergent-solubilized β2AR, 25° C.
T1 construct: also called β2 adrenoreceptor; denatured β2AR (when treated with SDS); not shown: carboxyl hexahistidine tag (six His)
Experimental: ITC measurements were performed at 25° C. using a VP-ITC calorimeter (Microcal, Inc.). […] Titrations were initiated with a 3 μl injection, followed by a series of 8 μl injections (37 β₂AR and 31 for β₂AR buffer blank), with 240 s between injections. After subtracting the blank titration, the measured heat released upon binding was plotted against the Fab:β₂AR molar ratio, and the data were fitted to a single-site binding model to obtain the association constant Ka, enthalpy change ΔH, and stoichiometry n using the Origin software package¹ (Microcal, Inc.)

[2] = target: T2, β2AR labeled at C265 with tetramethylrhodamine (UniProt P07550 1-413, tetramethylrhodamine on C265); experiment: antibody dose-response on fluorescence of β2AR-TMR (labeled at C265), 4 nM receptor
T2 construct: Detergent-solubilized (0.1% dodecylmaltoside) purified receptor; also called β2AR-TMR

Kd [1]: 150 nM
B1: Fab 5 (Fab fragment of antibody 5) (Fab, V domains shown)
VH: EVQLQQSGAELARPGASVKLSCKASGYIFTDYYINWVRQRTGQGFEWIGEIYPGSGNIDYNERFKDKATLTADKSSSTAYMQLSSLTSEDSAVYFCVRGFGYWGQGTTLTVSS
VL: DIKMTQSPSSMYASLGERVTITCKASQDINSYLSWFQQKPGKSPKTLIYRANRLVDGVPSRFIGTGSGQDYSLTISSLDYEDMGIYYCLQYDEFPYTFGGGTKLEIKR
notes: Made by papain cleavage of purified mouse antibody 5 and purified by ion exchange (Mono Q) chromatography; also called Fab5 antibody; Fab 5 fragments

EC50 [2]: 23 nM
B2: antibody 5 (intact mouse monoclonal antibody) (antibody, V domains shown)
VH: B1 VH
VL: B1 VL
notes: Mouse IgG from hybridoma; also called Mab5; Mab5 IgG
